Data as given in patent US20260274985A1 (MYTHIC THERAPEUTICS, published 2026).

T1: Human TROP2 Protein, His Tag (human, UniProt P09758 27-274)
T1 construct: Bought protein; also called TACSTD2; not shown: His tag
T1 sequence (looked up): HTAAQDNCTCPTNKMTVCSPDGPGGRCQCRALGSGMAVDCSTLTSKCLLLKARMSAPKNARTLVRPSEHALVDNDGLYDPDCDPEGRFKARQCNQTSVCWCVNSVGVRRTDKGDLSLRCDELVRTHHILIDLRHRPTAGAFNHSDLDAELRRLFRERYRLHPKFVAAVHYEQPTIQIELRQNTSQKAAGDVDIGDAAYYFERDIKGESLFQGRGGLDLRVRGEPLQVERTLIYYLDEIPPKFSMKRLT

T2: Human TROP2 Protein, His Tag (Acro Biosystems) (human, UniProt P09758 27-274)
T2 construct: Bought protein; also called TACSTD2; not shown: His tag
T2 sequence: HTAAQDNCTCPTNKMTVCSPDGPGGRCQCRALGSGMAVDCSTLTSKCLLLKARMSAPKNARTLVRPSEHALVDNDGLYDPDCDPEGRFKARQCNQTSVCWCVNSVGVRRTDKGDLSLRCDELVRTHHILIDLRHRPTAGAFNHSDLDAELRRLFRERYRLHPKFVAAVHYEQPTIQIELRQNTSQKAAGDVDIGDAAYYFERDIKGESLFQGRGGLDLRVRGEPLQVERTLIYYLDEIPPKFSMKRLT


These binders were tested against T1, Human TROP2 Protein, His Tag (assay: BLI (Octet)).

binding result | Binder
binds | MYT11636 (antibody, V domains shown, IgG from supernatant; His at HCV position 26; also called datopotamab variant H1 01) VH: QVQLVQSGAEVKKPGASVKVSCKASHYTFTTAGMQWVRQAPGQGLEWMGWINTHSGVPKYAEDFKGRVTISADTSTSTAYLQLSSLKSEDTAVYYCARSGFGSSYWYFDVWGQGTLVTVSS VL: DIQMTQSPSSLSASVGDRVTITCKASQDVSTAVAWYQQKPGKAPKLLIYSASYRYTGVPSRFSGSGSGTDFTLTISSLQPEDFAVYYCQQHYITPLTFGQGTKLEIK
binds | MYT11641 (antibody, V domains shown, IgG from supernatant; His at HCV position 31; also called datopotamab variant H1 06) VH: QVQLVQSGAEVKKPGASVKVSCKASGYTFTHAGMQWVRQAPGQGLEWMGWINTHSGVPKYAEDFKGRVTISADTSTSTAYLQLSSLKSEDTAVYYCARSGFGSSYWYFDVWGQGTLVTVSS VL: DIQMTQSPSSLSASVGDRVTITCKASQDVSTAVAWYQQKPGKAPKLLIYSASYRYTGVPSRFSGSGSGTDFTLTISSLQPEDFAVYYCQQHYITPLTFGQGTKLEIK
binds | MYT11640 (antibody, V domains shown, IgG from supernatant; His at HCV position 30; also called datopotamab variant H1 05) VH: QVQLVQSGAEVKKPGASVKVSCKASGYTFHTAGMQWVRQAPGQGLEWMGWINTHSGVPKYAEDFKGRVTISADTSTSTAYLQLSSLKSEDTAVYYCARSGFGSSYWYFDVWGQGTLVTVSS VL: DIQMTQSPSSLSASVGDRVTITCKASQDVSTAVAWYQQKPGKAPKLLIYSASYRYTGVPSRFSGSGSGTDFTLTISSLQPEDFAVYYCQQHYITPLTFGQGTKLEIK
binds | MYT11639 (antibody, V domains shown, IgG from supernatant; His at HCV position 29; also called datopotamab variant H1 04) VH: QVQLVQSGAEVKKPGASVKVSCKASGYTHTTAGMQWVRQAPGQGLEWMGWINTHSGVPKYAEDFKGRVTISADTSTSTAYLQLSSLKSEDTAVYYCARSGFGSSYWYFDVWGQGTLVTVSS VL: DIQMTQSPSSLSASVGDRVTITCKASQDVSTAVAWYQQKPGKAPKLLIYSASYRYTGVPSRFSGSGSGTDFTLTISSLQPEDFAVYYCQQHYITPLTFGQGTKLEIK
binds | MYT11637 (antibody, V domains shown, IgG from supernatant; His at HCV position 27; also called datopotamab variant H1 02) VH: QVQLVQSGAEVKKPGASVKVSCKASGHTFTTAGMQWVRQAPGQGLEWMGWINTHSGVPKYAEDFKGRVTISADTSTSTAYLQLSSLKSEDTAVYYCARSGFGSSYWYFDVWGQGTLVTVSS VL: DIQMTQSPSSLSASVGDRVTITCKASQDVSTAVAWYQQKPGKAPKLLIYSASYRYTGVPSRFSGSGSGTDFTLTISSLQPEDFAVYYCQQHYITPLTFGQGTKLEIK
binds | MYT11642 (antibody, V domains shown, IgG from supernatant; His at HCV position 32; also called datopotamab variant H1 07) VH: QVQLVQSGAEVKKPGASVKVSCKASGYTFTTHGMQWVRQAPGQGLEWMGWINTHSGVPKYAEDFKGRVTISADTSTSTAYLQLSSLKSEDTAVYYCARSGFGSSYWYFDVWGQGTLVTVSS VL: DIQMTQSPSSLSASVGDRVTITCKASQDVSTAVAWYQQKPGKAPKLLIYSASYRYTGVPSRFSGSGSGTDFTLTISSLQPEDFAVYYCQQHYITPLTFGQGTKLEIK
binds | MYT11638 (antibody, V domains shown, IgG from supernatant; His at HCV position 28; also called datopotamab variant H1 03) VH: QVQLVQSGAEVKKPGASVKVSCKASGYHFTTAGMQWVRQAPGQGLEWMGWINTHSGVPKYAEDFKGRVTISADTSTSTAYLQLSSLKSEDTAVYYCARSGFGSSYWYFDVWGQGTLVTVSS VL: DIQMTQSPSSLSASVGDRVTITCKASQDVSTAVAWYQQKPGKAPKLLIYSASYRYTGVPSRFSGSGSGTDFTLTISSLQPEDFAVYYCQQHYITPLTFGQGTKLEIK

Each binder was assayed against T2, Human TROP2 Protein, His Tag (Acro …) (assay: BLI (Octet)).

Binder | binding result
MYT12445 (hu7E6SVG variant, LCV substitutions at 60, 94 (Ala at 94)) (antibody, V domains shown, Full IgG in Expi293 supernatant) VH: QVQLQESGPGLVKPSETLSLTCTVSGGSISSYGVHWIRQPPGKGLEWIGVIWTSGVTDYNSALMGRVTISVDTSKNQFSLKLSSVTAADTAVYYCARDGDYDRYTMDYWGQGTLVTVSS VL: DIVMTQSPDSLAVSLGERATINCRASKSVSTSGYSYMHWYQQKPGQPPKLLIYLASNLEHGVPDRFSGSGSGTDFTLTISSLQAEDVAVYYCQASRELPYTFGQGTKLEIK | binds
MYT12446 (hu7E6SVG variant, LCV substitutions at 60, 97) (antibody, V domains shown, Full IgG in Expi293 supernatant) VH: QVQLQESGPGLVKPSETLSLTCTVSGGSISSYGVHWIRQPPGKGLEWIGVIWTSGVTDYNSALMGRVTISVDTSKNQFSLKLSSVTAADTAVYYCARDGDYDRYTMDYWGQGTLVTVSS VL: DIVMTQSPDSLAVSLGERATINCRASKSVSTSGYSYMHWYQQKPGQPPKLLIYLASNLEHGVPDRFSGSGSGTDFTLTISSLQAEDVAVYYCQHSRHLPYTFGQGTKLEIK | binds
MYT12455 (hu7E6SVG variant, LCV substitutions at 59, 60, 94 (Ala at 94)) (antibody, V domains shown, Full IgG in Expi293 supernatant) VH: QVQLQESGPGLVKPSETLSLTCTVSGGSISSYGVHWIRQPPGKGLEWIGVIWTSGVTDYNSALMGRVTISVDTSKNQFSLKLSSVTAADTAVYYCARDGDYDRYTMDYWGQGTLVTVSS VL: DIVMTQSPDSLAVSLGERATINCRASKSVSTSGYSYMHWYQQKPGQPPKLLIYLASNLHHGVPDRFSGSGSGTDFTLTISSLQAEDVAVYYCQASRELPYTFGQGTKLEIK | binds
MYT12449 (hu7E6SVG variant, LCV substitutions at 93, 97) (antibody, V domains shown, Full IgG in Expi293 supernatant) VH: QVQLQESGPGLVKPSETLSLTCTVSGGSISSYGVHWIRQPPGKGLEWIGVIWTSGVTDYNSALMGRVTISVDTSKNQFSLKLSSVTAADTAVYYCARDGDYDRYTMDYWGQGTLVTVSS VL: DIVMTQSPDSLAVSLGERATINCRASKSVSTSGYSYMHWYQQKPGQPPKLLIYLASNLESGVPDRFSGSGSGTDFTLTISSLQAEDVAVYYCHHSRHLPYTFGQGTKLEIK | binds

Next, values leading:

binding result | Binder
binds | MYT12453 (hu7E6SVG variant, LCV substitutions at 97, 101) (antibody, V domains shown, Full IgG in Expi293 supernatant) VH: QVQLQESGPGLVKPSETLSLTCTVSGGSISSYGVHWIRQPPGKGLEWIGVIWTSGVTDYNSALMGRVTISVDTSKNQFSLKLSSVTAADTAVYYCARDGDYDRYTMDYWGQGTLVTVSS VL: DIVMTQSPDSLAVSLGERATINCRASKSVSTSGYSYMHWYQQKPGQPPKLLIYLASNLESGVPDRFSGSGSGTDFTLTISSLQAEDVAVYYCQHSRHLPYHFGQGTKLEIK
binds | MYT12447 (hu7E6SVG variant, LCV substitutions at 60, 101) (antibody, V domains shown, Full IgG in Expi293 supernatant) VH: QVQLQESGPGLVKPSETLSLTCTVSGGSISSYGVHWIRQPPGKGLEWIGVIWTSGVTDYNSALMGRVTISVDTSKNQFSLKLSSVTAADTAVYYCARDGDYDRYTMDYWGQGTLVTVSS VL: DIVMTQSPDSLAVSLGERATINCRASKSVSTSGYSYMHWYQQKPGQPPKLLIYLASNLEHGVPDRFSGSGSGTDFTLTISSLQAEDVAVYYCQHSRELPYHFGQGTKLEIK
binds | MYT12454 (hu7E6SVG variant, LCV substitutions at 59, 60, 93) (antibody, V domains shown, Full IgG in Expi293 supernatant) VH: QVQLQESGPGLVKPSETLSLTCTVSGGSISSYGVHWIRQPPGKGLEWIGVIWTSGVTDYNSALMGRVTISVDTSKNQFSLKLSSVTAADTAVYYCARDGDYDRYTMDYWGQGTLVTVSS VL: DIVMTQSPDSLAVSLGERATINCRASKSVSTSGYSYMHWYQQKPGQPPKLLIYLASNLHHGVPDRFSGSGSGTDFTLTISSLQAEDVAVYYCHHSRELPYTFGQGTKLEIK
binds | MYT12450 (hu7E6SVG variant, LCV substitutions at 93, 101) (antibody, V domains shown, Full IgG in Expi293 supernatant) VH: QVQLQESGPGLVKPSETLSLTCTVSGGSISSYGVHWIRQPPGKGLEWIGVIWTSGVTDYNSALMGRVTISVDTSKNQFSLKLSSVTAADTAVYYCARDGDYDRYTMDYWGQGTLVTVSS VL: DIVMTQSPDSLAVSLGERATINCRASKSVSTSGYSYMHWYQQKPGQPPKLLIYLASNLESGVPDRFSGSGSGTDFTLTISSLQAEDVAVYYCHHSRELPYHFGQGTKLEIK
binds | MYT12451 (hu7E6SVG variant, LCV substitutions at 94, 97 (Ala at 94)) (antibody, V domains shown, Full IgG in Expi293 supernatant) VH: QVQLQESGPGLVKPSETLSLTCTVSGGSISSYGVHWIRQPPGKGLEWIGVIWTSGVTDYNSALMGRVTISVDTSKNQFSLKLSSVTAADTAVYYCARDGDYDRYTMDYWGQGTLVTVSS VL: DIVMTQSPDSLAVSLGERATINCRASKSVSTSGYSYMHWYQQKPGQPPKLLIYLASNLESGVPDRFSGSGSGTDFTLTISSLQAEDVAVYYCQASRHLPYTFGQGTKLEIK
binds | MYT12448 (hu7E6SVG variant, LCV substitutions at 93, 94 (Ala at 94)) (antibody, V domains shown, Full IgG in Expi293 supernatant) VH: QVQLQESGPGLVKPSETLSLTCTVSGGSISSYGVHWIRQPPGKGLEWIGVIWTSGVTDYNSALMGRVTISVDTSKNQFSLKLSSVTAADTAVYYCARDGDYDRYTMDYWGQGTLVTVSS VL: DIVMTQSPDSLAVSLGERATINCRASKSVSTSGYSYMHWYQQKPGQPPKLLIYLASNLESGVPDRFSGSGSGTDFTLTISSLQAEDVAVYYCHASRELPYTFGQGTKLEIK
binds | MYT12469 (hu7E6SVG variant, LCV substitutions at 60, 97, 101) (antibody, V domains shown, Full IgG in Expi293 supernatant) VH: QVQLQESGPGLVKPSETLSLTCTVSGGSISSYGVHWIRQPPGKGLEWIGVIWTSGVTDYNSALMGRVTISVDTSKNQFSLKLSSVTAADTAVYYCARDGDYDRYTMDYWGQGTLVTVSS VL: DIVMTQSPDSLAVSLGERATINCRASKSVSTSGYSYMHWYQQKPGQPPKLLIYLASNLEHGVPDRFSGSGSGTDFTLTISSLQAEDVAVYYCQHSRHLPYHFGQGTKLEIK
binds | MYT12466 (hu7E6SVG variant, LCV substitutions at 60, 93, 101) (antibody, V domains shown, Full IgG in Expi293 supernatant) VH: QVQLQESGPGLVKPSETLSLTCTVSGGSISSYGVHWIRQPPGKGLEWIGVIWTSGVTDYNSALMGRVTISVDTSKNQFSLKLSSVTAADTAVYYCARDGDYDRYTMDYWGQGTLVTVSS VL: DIVMTQSPDSLAVSLGERATINCRASKSVSTSGYSYMHWYQQKPGQPPKLLIYLASNLEHGVPDRFSGSGSGTDFTLTISSLQAEDVAVYYCHHSRELPYHFGQGTKLEIK
binds | MYT12472 (hu7E6SVG variant, LCV substitutions at 93, 97, 101) (antibody, V domains shown, Full IgG in Expi293 supernatant) VH: QVQLQESGPGLVKPSETLSLTCTVSGGSISSYGVHWIRQPPGKGLEWIGVIWTSGVTDYNSALMGRVTISVDTSKNQFSLKLSSVTAADTAVYYCARDGDYDRYTMDYWGQGTLVTVSS VL: DIVMTQSPDSLAVSLGERATINCRASKSVSTSGYSYMHWYQQKPGQPPKLLIYLASNLESGVPDRFSGSGSGTDFTLTISSLQAEDVAVYYCHHSRHLPYHFGQGTKLEIK
